Experimental data: publication doi:10.1101/2025.10.01.679806 (bioRxiv, 2025)
Several values for one entry are separate records, joined by “and”; a condition that tells them apart may be missing. Equal values may be shown once.

Assays:
[1] = target: Bpa 31-146 (Mycobacterium tuberculosis) (UniProt P9WKX3); experiment: NMR CPMG relaxation dispersion
[2] = target: Bpa 31-146 (Mycobacterium tuberculosis) (UniProt P9WKX3); experiment: NMR titration
methyl-TROSY NMR = target: the molecule itself; experiment: methyl-TROSY NMR
[3] = target: the molecule itself; experiment: NMR pulsed-field gradient diffusion
native MS = target: the molecule itself; experiment: native MS

## DNA-binding domain of human telomeric repeat-binding factor 1 (residues 378-430) (domain or fragment)
[1]
  exchange rate between Bpa free and bound with hTRF1 (CPMG): > 1500 s⁻¹
[2]
  Kd: < 200 nM and 1500 nM
  stoichiometry N (hTRF1 molecules per Bpa dodecamer): 3

B1: Bpa 31-146 (domain or fragment)
chain: DSDESSLTDLVEQPAKVMRIGTMIKQLLEEVRAAPLDEASRNRLRDIHATSIRELEDGLAPELREELDRLTLPFNEDAVPSDAELRIAQAQLVGWLEGLFHGIQTALFAQQMAARA
methyl-TROSY NMR
  stoichiometry N: 12

B2: wild-type (WT) Mycobacterium tuberculosis bacterial proteasome activator Bpa (Rv3780) (natural protein)
chain: MVIGLSTGSDDDDVEVIGGVDPRLIAVQENDSDESSLTDLVEQPAKVMRIGTMIKQLLEEVRAAPLDEASRNRLRDIHATSIRELEDGLAPELREELDRLTLPFNEDAVPSDAELRIAQAQLVGWLEGLFHGIQTALFAQQMAARAQLQQMRQGALPPGVGKSGQHGHGTGQYL
[3]
  stoichiometry N: 4
Native MS
  stoichiometry N: 2
